Source: paper PMC9661471 (Journal of Medicinal Chemistry, 2022)
*1 amine or outer side, *2 acyl side, *3 side chain or, on linkers, in order; H or OH if unused. Bridges are numbered along the chain shown (N, C = ends). TATA = O=C(CC[*:1])N1CN(C(=O)CC[*:2])CN(C(=O)CC[*:3])C1

T1: human Nectin-4 ECD (human, UniProt Q96NY8 32-349)
T1 sequence (looked up): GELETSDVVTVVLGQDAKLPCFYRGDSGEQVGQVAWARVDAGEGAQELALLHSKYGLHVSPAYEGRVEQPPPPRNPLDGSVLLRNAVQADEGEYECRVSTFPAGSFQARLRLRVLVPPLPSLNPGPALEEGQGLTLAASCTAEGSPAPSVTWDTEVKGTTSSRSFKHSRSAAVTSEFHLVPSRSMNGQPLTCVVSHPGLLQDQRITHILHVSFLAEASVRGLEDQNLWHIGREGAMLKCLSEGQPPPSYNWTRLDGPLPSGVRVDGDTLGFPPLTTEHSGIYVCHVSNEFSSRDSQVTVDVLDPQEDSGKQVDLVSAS


Columns and labels:
[1] = target: human Nectin-4 ECD (human) (UniProt Q96NY8); test: SPR
human Nectin-4 ECD = target: T1, human Nectin-4 ECD; test: fluorescence polarisation

Row | Ki (human Nectin-4 ECD) | Molecule | Kd [1]
1 | – | Bicycle Toxin Conjugate BT8009 (peptide) | 2.5 nM
2 | 13.5 nM | Ac-CPFGCMKNWSWPIWCTNK-NH2 (linker 1-5-15 via TATA) [Bicycle 8] | –
3 | 17.6 nM | Ac-CPFGCMKNWSWPIWC-NH2 (linker 1-5-15 via TATA; SMILES CC[C@H](C)[C@@H]1NC(=O)[C@@H]2CCCN2C(=O)[C@H](Cc2c[nH]c3ccccc23)NC(=O)[C@H](CO)NC(=O)[C@H](Cc2c[nH]c3ccccc23)NC(=O)[C@H](CC(N)=O)NC(=O)[C@H](CCCCN)NC(=O)[C@H](CCSC)NC(=O)[C@@H]2CSCCC(=O)N3CN(CN(C3)C(=O)CCSC[C@H](NC(C)=O)C(=O)N3CCC[C@H]3C(=O)N[C@@H](Cc3ccccc3)C(=O)NCC(=O)N2)C(=O)CCSC[C@@H](C(N)=O)NC(=O)[C@H](Cc2c[nH]c3ccccc23)NC1=O) [Bicycle 10] | –
